Results as given in US20250197514A1 (INTERVET, published 2025).
Residue numbers refer to the chain shown, from its start. Numbers in names are those of the source. One block for each binder: values may come before it.

Tests used:
[1] = biological target: T1, canine FcRn heterodimer (FCGRT large subunit p51 + beta-2-microglobulin), biotin-labeled (Canis lupus familiaris; Canis familiaris, biotin-labeled (site not stated; the chain carries an AviTag)); test: BLI (Octet HTX), biotinylated FcRn/B2M on streptavidin biosensors, analyte 500-7.8 nM, pH 7.4, 1:1 fit; pH 7.4
T1 construct: also called FcRn/B2M; FcRn/β2M; not shown: AviTag, named only
T1 chain (part 1 of 2): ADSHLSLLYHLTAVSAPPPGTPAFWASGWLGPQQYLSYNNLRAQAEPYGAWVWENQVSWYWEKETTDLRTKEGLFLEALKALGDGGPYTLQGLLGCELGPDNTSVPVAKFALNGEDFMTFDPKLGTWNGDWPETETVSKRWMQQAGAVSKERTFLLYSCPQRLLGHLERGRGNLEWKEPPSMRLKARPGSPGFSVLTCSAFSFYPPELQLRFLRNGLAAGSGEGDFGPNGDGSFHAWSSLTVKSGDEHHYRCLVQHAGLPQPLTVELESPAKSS
T1 chain (part 2 of 2): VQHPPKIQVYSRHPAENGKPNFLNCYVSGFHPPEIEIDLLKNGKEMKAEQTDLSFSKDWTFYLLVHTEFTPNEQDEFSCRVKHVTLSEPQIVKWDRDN
Method: (§1) The binding of antibodies and IgG Fc fusion proteins to FcRn proteins was determined by Octet™ HTX using Streptavidin (SA) biosensors. First, biotin-labeled […] was loaded onto pre-hydrated SA biosensors for 60 s at a concentration of 10 μg/mL. Second, the biosensors were placed into pH 6.0 TBS/Casein buffer for the blocking phase for 180 s. Third, for the association phase, FcRn/B2M loaded biosensors were placed into 2-fold serial dilutions from 500 nM down to 7.8 nM of antibody or IgG Fc fusion protein in pH 6.0 or 7.4 TBS/Casein buffer for 15 s. Finally, the biosensors were placed into either pH 6.0 or pH 7.4 TBS/Casein buffer for the dissociation phase for 60 s. Analysis was performed using Octet Data Analysis 12.0 software and curves were fitted using a 1:1 binding model.

[2] = biological target: T1, canine FcRn heterodimer (FCGRT large …); test: BLI (Octet HTX), biotinylated FcRn/B2M on streptavidin biosensors, analyte 500-7.8 nM, pH 6.0, 1:1 fit; pH 6.0
Method: as §1

[3] = biological target: T1, canine FcRn heterodimer (FCGRT large …); test: BLI (Octet HTX), biotinylated FcRn/B2M on streptavidin biosensors, analyte 500-7.8 nM, pH 7.4, 1:1 fit
Method: as §1

[4] = biological target: T1, canine FcRn heterodimer (FCGRT large …); test: BLI (Octet HTX), biotinylated FcRn/B2M on streptavidin biosensors, analyte 500-7.8 nM, pH 6.0, 1:1 fit
Method: as §1

Kd [1]: 105 nM
B1: c218D9-H4L3-cIgGBm-YD (antibody)
heavy: EVTLQESGPGLVKPSQTLSLTCSFSGFSLSTFGRGVGWIRQRPGRGLEWMGHIWWDDDKYYNPALKSRLSITKDTAKNQVFLQLSSMTTEDTAVYYCARIAGGLRRAPYAMDSWGQGTLVTVSSASTTAPSVFPLAPSCGSTSGSTVALACLVSGYFPEPVTVSWNSGSLTSGVHTFPSVLQSSGLYSLSSMVTVPSSRWPSETFTCNVAHPASKTKVDKPVPKRENGRVPRPPDCPKCPAPEMLGGPSVFIFPPKPKDTLYIARDPEVTCVVVALDPEDPEVQISWFVDGKQMQTAKTQPREEQFAGTYRVVSVLPIGHQDWLKGKQFTCKVNNKALPSPIERTISKARGQAHQPSVYVLPPSREELSKNTVSLTCLIKDFFPPDIDVEWQSNGQQEPESKYRTTPPQLDEDGSYFLYSKLSVDKSRWQRGDTFICAVMHEALHNHYTQESLSHSPGK
light: DIVMTQTPLSLSVSPGETASISCRASENIYSSLAWFRQKPGQSPQLLVYAATNLADGVPDRFSGSGSGTDYTLRISRVEADDTGVYYCQHFRDTPPTFGQGTKLEIKRNDAQPAVYLFQPSPDQLHTGSASVVCLLNSFYPKDINVKWKVDGVIQDTGIQESVTEQDKDSTYSLSSTLTMSSTEYLSHELYSCEITHKSLPSTLIKSFQRSECQRVD
notes: also called c218D9VH4-cIgGBm-YD; L252Y/T256D

Kd [2]: 931 nM | Kd [3]: 136 nM
B2: cIL-13Rα2-cIgGB-Fc-KFT (Fc fusion)
chain: SMLSNAEIKVNPPQDFEIVDPGYLGYLSLQWQPPLFPDNFKECTIEYELKYRNIDSENWKTIITKNLHYKDGFDLNKGIEAKINTLLPAQCTNGSEVRSSWAETTYWTSPQGNRETKIQDMDCVYYNWQYLVCSWKPGMGVHFDTNYQLFYWYEGLDHSAECTDYIKVNGKNMGCRFPYLESSDYKDFYICVNGSSESQPIRPSYFIFQLQNIVKPMPPDYLSLTVKNSEEINLKWNMPKGPIPAKCFIYEIEFTEDGTTWVTTTVENEIQITRTSNESQKLCFLVRSKVNIYCSDDGIWSEWSDEQCWKGDIWKETPKRENGRVPRPPDCPKCPAPEMLGGPSVFIFPPKPKDTLLIARTPEVTCVVVDLDPEDPEVQISWFVDGKQMQTAKTQPREEQFNGTYRVVSVLPIGHQDWLKGKQFTCKVNNKALPSPIERTISKARGQAHQPSVYVLPPSREELSKNTVSLTCLIKDFFPPDIDVEWQSNGQQEPESKYRTTPPQLDEDGSYFLYSKLSVDKSRWQRGDTFICAVMHEALKFHTTQESLSHSPGK
notes: also called cIL-13Ra2-cIgGB-Fc-KFT; H433K/N434F/Y436T

Kd [4]: 1.39 nM | Kd [3]: 233 nM
B3: cIL-13Rα2-cIgGB-Fc-YT (Fc fusion)
chain: B2 chain with K540H, F541Y
notes: also called cIL-13Ra2-cIgGB-Fc-YT; N434Y/Y436T

Kd [2]: 0.00046 nM | Kd [3]: 296 nM
B4: cIL-13Rα2-cIgGB-Fc-KY (Fc fusion)
chain: B2 chain with F541Y, T543Y
notes: also called cIL-13Ra2-cIgGB-Fc-KY; H433K/N434Y
